Here are results for two substances from patent US20120189572A1.

The target in experiment [1] is full length wild type human DR5 (human) (UniProt O14763). The experiment in a line: cell-based or functional assay.
The target of experiment [2] is mDR5ectm-td1, extracellular and transmembrane domains of murine DR5 fused to tetanus toxin fragment (mouse). Briefly: flow cytometry on SKOV3 cells transfected with murine DR5 (mDR5ectm-td1).

Chain of UniProt O14763 (O14763 other isoform, or with tags, fused parts or gaps limits assumed): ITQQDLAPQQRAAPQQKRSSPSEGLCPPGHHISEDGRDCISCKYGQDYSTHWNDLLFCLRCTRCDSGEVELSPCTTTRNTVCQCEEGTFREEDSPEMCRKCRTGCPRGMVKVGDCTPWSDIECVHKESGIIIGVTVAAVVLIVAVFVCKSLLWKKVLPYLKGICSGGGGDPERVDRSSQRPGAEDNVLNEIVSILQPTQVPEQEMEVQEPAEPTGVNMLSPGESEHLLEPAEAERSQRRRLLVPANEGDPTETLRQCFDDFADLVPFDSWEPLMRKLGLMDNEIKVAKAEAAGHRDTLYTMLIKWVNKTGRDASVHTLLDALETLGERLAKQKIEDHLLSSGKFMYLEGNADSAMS

In experiment [1], “human DR5 agonist monoclonal antibody mAb631 (clone 71903, MAB631; R&D Systems)” displayed a growth inhibition of SUM159 cells (MTT) at 1 µg/mL antibody of 36%, a growth inhibition of SUM159 cells (MTT) at 2 µg/mL antibody of 55% and a growth inhibition of SUM159 cells (MTT) at 4 µg/mL antibody of 65%.
Regarding MD5-1, monoclonal antibody to mouse DR5, the percent of cells stained in experiment [2] worked out at 100%.
